The source of these data is the RNAGym collection of RNA variant scans (doi:10.1093/nar/gkz1192).

B1: CPEB3 Ribozyme (parent)
chain: UAACAGGGGGCCACAGCAGAAGCGUUCACGUCGCAGCCCCUGUCAGAUUCUGGUGAAUCUGCGAAUUCUGCUGUAUAUCUC

Variants of B1 are the subject of the data set. The experiment in a line: self-cleavage, relative activity (ratio to wild type); higher = more cleavage; in vitro, sequencing. Summed up:
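CPEB3 self-cleaving ribozyme mutant libraries were made by rounds of error-prone PCR, barcoded, and transcribed in vitro with T7 RNA polymerase for 5 hours at 37°C. Cleavage occurred during transcription and a 15 min DNase I step before EDTA stop. RNAs were reverse transcribed with template switching and Illumina-sequenced, with DNA sequencing mapping barcodes to variants. Relative activity is the variant's cleaved/total read fraction divided by wild type's (minimum 5 reads), averaged across three batches.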
On to G22C A64U, for which the self-cleavage is 0.16.

As for G16A A20G, the self-cleavage came out at 0.24.

Consider G52A U76C, for which the self-cleavage stood at 1.06.

Consider U25C G52U, for which the self-cleavage is 0.29.

As for G10U A28G, the self-cleavage came out at 0.17.

Regarding A13U U69G, the self-cleavage came to 0.85.

Turning to A18U G63A, the self-cleavage is 0.48.

With A13G U72A, the self-cleavage stood at 0.54.

Consider A18C U25C, for which the self-cleavage was 0.27.

Take U1C A47G: the self-cleavage is 0.9.

In the case of U26C G42C, the self-cleavage came to 0.15.

With U26C G42A, the self-cleavage came to 0.31.

For the variant U43C U78G, the self-cleavage was 0.65.

As to G10C U69A, the self-cleavage stood at 0.3.

Regarding U25G C37U, the self-cleavage is 0.09.

A3G U80G: the self-cleavage stood at 1.12.

Take A3G U80A: the self-cleavage was found to be 1.11.

Consider U26A U67C, for which the self-cleavage is 0.29.

Turning to A28U C50U, the self-cleavage was 0.8.

G10A U69C: the self-cleavage was found to be 0.2.

For A13C U26A, the self-cleavage is 0.61.

As for A13G U51A, the self-cleavage turned out to be 0.91.

Regarding C44U A56G, the self-cleavage was 0.18.

Consider A5G A13G, for which the self-cleavage came out at 0.56.

Take A47U C59U: the self-cleavage amounted to 0.2.

In the case of U41A, the self-cleavage was found to be 0.3.

For G16U A28G, the self-cleavage came out at 0.18.

Regarding A20U G24U, the self-cleavage worked out at 0.08.

As for U48G U80C, the self-cleavage was determined as 0.6.

As for A28U G53U, the self-cleavage amounted to 1.

On to A5U U66G, for which the self-cleavage stood at 0.93.

As for C59G C71A, the self-cleavage stood at 0.24.

Consider C12A U26A, for which the self-cleavage amounted to 1.08.

For the variant G30A A35U, the self-cleavage came out at 0.15.

As to C11U C38A, the self-cleavage was determined as 0.06.

In the case of A2G C79U, the self-cleavage is 0.82.

Take G33A A56U: the self-cleavage stood at 0.18.

Take U25A U54C: the self-cleavage came out at 0.27.

Take A3G G61U: the self-cleavage is 0.8.

On to G70U U78A, for which the self-cleavage came to 0.48.

As for U48C A65U, the self-cleavage is 0.27.

Regarding U26C A75U, the self-cleavage was 0.56.

For the variant G36A A56G, the self-cleavage came to 0.19.

Regarding U31C G42A, the self-cleavage worked out at 0.35.

Consider A64U C79A, for which the self-cleavage was found to be 0.36.

With C23A G52U, the self-cleavage was 0.15.

For G55C U80A, the self-cleavage came out at 0.7.

In the case of A45G U66A, the self-cleavage worked out at 0.41.

In the case of U80C, the self-cleavage amounted to 1.08.

As for U1C G33A, the self-cleavage was 0.32.

With A3G C34U, the self-cleavage was found to be 0.25.

Take G70A: the self-cleavage came out at 0.55.

In the case of G8A U72C, the self-cleavage is 0.26.

Turning to A18C A77G, the self-cleavage came to 0.26.

Consider G6A A18C, for which the self-cleavage is 0.44.

On to G36A U69C, for which the self-cleavage amounted to 0.27.

On to G33C U51C, for which the self-cleavage came to 0.44.

Take U43C G52U: the self-cleavage is 1.06.

For the variant C4U U51A, the self-cleavage came out at 0.98.

On to G6C C62U, for which the self-cleavage was 0.2.

On to A35G A64G, for which the self-cleavage was 1.28.

Regarding A57G U58G, the self-cleavage is 0.22.

For A28C C62U, the self-cleavage was determined as 0.06.

In the case of G16U U69C, the self-cleavage came to 0.13.

As for G52C U67A, the self-cleavage was 0.88.

As to G33C A35U, the self-cleavage is 0.14.

On to G24A C37A, for which the self-cleavage came to 0.17.

With A35U G53U, the self-cleavage turned out to be 0.76.

With U1G U48C, the self-cleavage stood at 0.79.

With U43G A64U, the self-cleavage turned out to be 0.47.

Take A2G A65U: the self-cleavage was found to be 0.38.

Turning to C50G A56U, the self-cleavage came out at 0.45.

On to C17U C37A, for which the self-cleavage stood at 0.09.

In the case of C17G U25G, the self-cleavage worked out at 0.06.

For U25C C27A, the self-cleavage was found to be 0.41.

Turning to U26A G73A, the self-cleavage was 0.96.

On to A20U U72G, for which the self-cleavage stood at 0.13.

As for A20G U43G, the self-cleavage is 0.44.

In the case of C23G U41C, the self-cleavage came to 0.21.

Take U51G U67A: the self-cleavage amounted to 0.43.

For the variant G8U U54A, the self-cleavage came out at 0.07.

G19U C40A: the self-cleavage was 0.21.

Consider U66A U80C, for which the self-cleavage amounted to 0.5.

For the variant U67A A75G, the self-cleavage worked out at 0.54.

For U25C C81A, the self-cleavage amounted to 0.23.

Take G70A A77G: the self-cleavage was found to be 0.53.

In the case of G7U C29U, the self-cleavage came to 0.09.

Consider A3C U58G, for which the self-cleavage was determined as 0.25.

Turning to U58C C71U, the self-cleavage turned out to be 0.41.

C27U A64G: the self-cleavage stood at 0.24.

U43G C44U: the self-cleavage stood at 0.14.

As for C29G A35G, the self-cleavage was determined as 0.67.

With C11G G55U, the self-cleavage is 0.55.

Regarding A18U A75G, the self-cleavage came to 0.38.

Regarding G6A G7U, the self-cleavage came to 0.07.

Consider A75U U80C, for which the self-cleavage was determined as 1.1.

Consider G36U U41C, for which the self-cleavage is 0.3.

For G19C A56G, the self-cleavage came out at 0.07.

Turning to U31A U80G, the self-cleavage worked out at 0.55.

With U69A U74A, the self-cleavage came to 0.55.

Regarding A13C U69A, the self-cleavage is 0.31.

In the case of A13U U43G, the self-cleavage is 0.26.

As for A13U U43C, the self-cleavage was 0.93.

For the variant A15G U67G, the self-cleavage came out at 0.4.

Turning to G55C U74G, the self-cleavage stood at 1.13.

Regarding A57U U74A, the self-cleavage was 1.23.

As for G33A U74C, the self-cleavage was 0.57.

For the variant A65G U76A, the self-cleavage came to 0.48.

For the variant G61A U80A, the self-cleavage came out at 0.91.

As to C44A U76C, the self-cleavage was 0.37.

U41C U60G: the self-cleavage was determined as 0.42.

Turning to A15C U49A, the self-cleavage was found to be 0.7.

With C23G A47G, the self-cleavage amounted to 0.28.

U26G U66C: the self-cleavage was determined as 0.16.

For A35U U80G, the self-cleavage turned out to be 0.65.

G19U A28G: the self-cleavage was determined as 0.14.

In the case of G19C C68U, the self-cleavage was 0.63.

With G30C A65G, the self-cleavage came to 0.11.

Regarding U31A U72C, the self-cleavage amounted to 0.66.

On to A18C U49G, for which the self-cleavage stood at 0.17.

Turning to G19C A57U, the self-cleavage turned out to be 0.13.

U1C C23A: the self-cleavage was found to be 0.22.

Turning to G30A U41C, the self-cleavage was found to be 0.22.

Take U41A U67G: the self-cleavage was 0.18.

As to C12U G16U, the self-cleavage came to 0.75.

Regarding C12U G16C, the self-cleavage worked out at 0.79.

As to U69C G70A, the self-cleavage came out at 0.24.

With U51G A75G, the self-cleavage was 0.89.

In the case of A28G C81U, the self-cleavage is 0.75.

Regarding G6U A15U, the self-cleavage came out at 0.41.

As to A5C C23G, the self-cleavage worked out at 0.18.

C12G U78C: the self-cleavage was 0.71.

As for A3G G53C, the self-cleavage worked out at 1.13.

For A45U U72A, the self-cleavage was found to be 0.39.

Take A45U U72C: the self-cleavage came out at 0.5.

For the variant A35G U69C, the self-cleavage stood at 1.2.

For the variant A20G U74C, the self-cleavage turned out to be 1.17.

Turning to A56C U58C, the self-cleavage stood at 0.14.

Consider A3G U78C, for which the self-cleavage stood at 0.99.

Turning to U25A C62A, the self-cleavage turned out to be 0.16.

On to U25A C62G, for which the self-cleavage came out at 0.39.

As to U26C C50G, the self-cleavage was 0.22.

As to U26C C50A, the self-cleavage is 0.44.

Consider U26A C71U, for which the self-cleavage is 0.24.

Consider A13C A47G, for which the self-cleavage is 1.05.

A15U A64U: the self-cleavage stood at 0.37.

Regarding U74G U78A, the self-cleavage amounted to 1.26.

Consider U74G U78C, for which the self-cleavage was determined as 1.26.

For the variant A2C U72A, the self-cleavage was 0.72.

Consider G22A A57G, for which the self-cleavage is 0.35.

For A18C C37A, the self-cleavage turned out to be 0.33.

Regarding U54A A56G, the self-cleavage was 0.82.

Consider U31G G33A, for which the self-cleavage is 0.57.

Turning to G46U U54C, the self-cleavage turned out to be 0.14.

Regarding A5U A64U, the self-cleavage was determined as 0.44.

For G8U A18U, the self-cleavage was 0.16.

For U1C U60A, the self-cleavage is 0.42.

Take A5G G10U: the self-cleavage was 0.39.

Regarding A2G A77G, the self-cleavage amounted to 0.64.

On to A75G A77U, for which the self-cleavage came out at 1.05.

Turning to C38U U54A, the self-cleavage stood at 0.85.

Take A15U U26G: the self-cleavage stood at 0.44.

Take C32U A56G: the self-cleavage is 0.17.

For the variant U48C U74G, the self-cleavage was found to be 1.02.

Take A21U U51C: the self-cleavage came to 0.34.

As to U51A A64C, the self-cleavage was found to be 0.51.

For the variant C12U A20U, the self-cleavage came out at 0.38.
